Results: the Human Domainome abundance scans (Beltran et al. 2025)
± gives the uncertainty stated by the source.

B1: Tumor protein 63, residues 545 to 610; numbered along this chain, Q9H3D4 (parent)
chain: TDCSIVSFLARLGCSSCLDYFTTQGLTTIYQIEHYSMDDLASLKIPEQFRHAIWKGILDHRQLHEF

Variants of: B1
Assay: abundance fitness (aPCA) (normalised: wild type 0, dead -1); higher = more abundant; growth selection in yeast, the domain comes from the species named
Details: Homo sapiens
I45M showed an abundance fitness of -0.143 ± 0.031.
Variant I45L has an abundance fitness of -0.034 ± 0.021.
With I45F the abundance fitness was -0.358 ± 0.036.
I45V gave an abundance fitness of -0.021 ± 0.023.
Work on D39Y yielded an abundance fitness of -0.437 ± 0.042.
Variant D39P has an abundance fitness of -0.864 ± 0.081.
Work on G56S yielded an abundance fitness of -0.142 ± 0.022.
For G56T, the abundance fitness was -0.541 ± 0.042.
Work on G56Q yielded an abundance fitness of -0.307 ± 0.043.
G56M gave an abundance fitness of -0.546 ± 0.046.
In the case of G56R, the abundance fitness is reported as -0.452 ± 0.02.
G56I showed an abundance fitness of -0.831 ± 0.12.
With G56K the abundance fitness was -0.447 ± 0.075.
For G56Y, the abundance fitness was -0.505 ± 0.036.
H64Q gave an abundance fitness of 0.029 ± 0.048.
H64K gave an abundance fitness of -0.018 ± 0.043.
H64E gave an abundance fitness of 0.034 ± 0.025.
For H64R, the abundance fitness was -0.019 ± 0.025.
Work on P46A yielded an abundance fitness of -0.406 ± 0.035.
Work on P46S yielded an abundance fitness of -0.351 ± 0.029.
In the case of P46E, the abundance fitness is reported as -0.155 ± 0.043.
Work on P46M yielded an abundance fitness of -0.928 ± 0.084.
For P46F, the abundance fitness was -0.913 ± 0.099.
Variant F21K has an abundance fitness of -1.15 ± 0.16.
Work on F21T yielded an abundance fitness of -1.13 ± 0.13.
In the case of F21A, the abundance fitness is reported as -1.02 ± 0.082.
F21Q gave an abundance fitness of -0.965 ± 0.095.
With L18C the abundance fitness was 0.007 ± 0.026.
With L18G the abundance fitness was -0.08 ± 0.031.
Variant L18M has an abundance fitness of -0.008 ± 0.044.
L18D showed an abundance fitness of -0.09 ± 0.036.
With L18Q the abundance fitness was -0.002 ± 0.063.
Variant L63A has an abundance fitness of 0.029 ± 0.029.
With L63M the abundance fitness was 0.025 ± 0.032.
L63C showed an abundance fitness of -0.01 ± 0.031.
Work on L63S yielded an abundance fitness of 0.005 ± 0.022.
In the case of S36P, the abundance fitness is reported as -0.608 ± 0.057.
S36E showed an abundance fitness of -0.014 ± 0.036.
In the case of S36F, the abundance fitness is reported as -0.379 ± 0.04.
With F66P the abundance fitness was 0.086 ± 0.063.
F66I showed an abundance fitness of -0.011 ± 0.051.
In the case of F66G, the abundance fitness is reported as -0.214 ± 0.068.
T27Y showed an abundance fitness of -0.079 ± 0.038.
In the case of T27C, the abundance fitness is reported as -0.133 ± 0.037.
Variant H34G has an abundance fitness of -0.014 ± 0.018.
With H34F the abundance fitness was -0.102 ± 0.033.
In the case of H34L, the abundance fitness is reported as -0.106 ± 0.023.
In the case of H34N, the abundance fitness is reported as 0.02 ± 0.029.
With H34K the abundance fitness was -0.018 ± 0.04.
In the case of H34S, the abundance fitness is reported as -0.004 ± 0.025.
Variant H34V has an abundance fitness of -0.27 ± 0.027.
A10I gave an abundance fitness of -0.203 ± 0.027.
A10Y gave an abundance fitness of -0.164 ± 0.029.
Work on A10W yielded an abundance fitness of -0.18 ± 0.054.
Work on A10L yielded an abundance fitness of -0.063 ± 0.037.
Work on A10E yielded an abundance fitness of -0.003 ± 0.061.
Variant I32K has an abundance fitness of -0.9 ± 0.14.
With I32F the abundance fitness was -0.209 ± 0.068.
Work on I32L yielded an abundance fitness of -0.062 ± 0.026.
With I32P the abundance fitness was -0.953 ± 0.1.
I32W showed an abundance fitness of -0.898 ± 0.051.
I32A gave an abundance fitness of -0.672 ± 0.035.
I32R gave an abundance fitness of -1.01 ± 0.06.
Work on I32T yielded an abundance fitness of -0.55 ± 0.044.
I32N gave an abundance fitness of -0.841 ± 0.1.
Work on I32C yielded an abundance fitness of -0.249 ± 0.046.
Work on L9I yielded an abundance fitness of -0.421 ± 0.059.
In the case of L9S, the abundance fitness is reported as -0.869 ± 0.043.
For L9A, the abundance fitness was -1 ± 0.093.
With L9N the abundance fitness was -0.814 ± 0.14.
Work on L9K yielded an abundance fitness of -1 ± 0.09.
In the case of L9H, the abundance fitness is reported as -1.02 ± 0.37.
In the case of L9E, the abundance fitness is reported as -0.666 ± 0.054.
Work on L9F yielded an abundance fitness of -0.626 ± 0.07.
In the case of L9C, the abundance fitness is reported as -0.344 ± 0.06.
For T23G, the abundance fitness was -0.004 ± 0.021.
Variant T23I has an abundance fitness of -0.072 ± 0.034.
T23K gave an abundance fitness of -0.008 ± 0.032.
T23N showed an abundance fitness of 0.002 ± 0.041.
Variant T23H has an abundance fitness of 0.076 ± 0.069.
In the case of T23L, the abundance fitness is reported as -0.03 ± 0.023.
M37W showed an abundance fitness of -0.071 ± 0.044.
M37S gave an abundance fitness of -0.083 ± 0.025.
Work on M37D yielded an abundance fitness of -0.138 ± 0.039.
Work on M37F yielded an abundance fitness of -0.009 ± 0.072.
In the case of M37Q, the abundance fitness is reported as -0.07 ± 0.031.
Work on I5V yielded an abundance fitness of -0.096 ± 0.02.
I5N gave an abundance fitness of -0.915 ± 0.089.
For I5Y, the abundance fitness was -0.971 ± 0.093.
I5P gave an abundance fitness of -1.04 ± 0.085.
In the case of C14Y, the abundance fitness is reported as -0.076 ± 0.049.
In the case of C14V, the abundance fitness is reported as -0.027 ± 0.022.
For C14M, the abundance fitness was -0.014 ± 0.067.
With C14F the abundance fitness was -0.111 ± 0.059.
Variant C14L has an abundance fitness of 0.023 ± 0.023.
Work on C14R yielded an abundance fitness of -0.222 ± 0.024.
R61K showed an abundance fitness of 0.058 ± 0.045.
Variant R61I has an abundance fitness of -0.062 ± 0.041.
In the case of R61P, the abundance fitness is reported as -0.022 ± 0.039.
R61W gave an abundance fitness of -0.105 ± 0.032.
For R61F, the abundance fitness was -0.037 ± 0.033.
Work on R61T yielded an abundance fitness of -0.055 ± 0.031.
Work on R61S yielded an abundance fitness of -0.039 ± 0.028.
In the case of R61V, the abundance fitness is reported as -0.067 ± 0.026.
C3N gave an abundance fitness of -0.021 ± 0.033.
Variant C3K has an abundance fitness of -0.075 ± 0.031.
Variant C3R has an abundance fitness of -0.051 ± 0.018.
With C3H the abundance fitness was -0.08 ± 0.044.
With C3L the abundance fitness was -0.033 ± 0.02.
H51P showed an abundance fitness of -0.031 ± 0.033.
H51Q showed an abundance fitness of 0.005 ± 0.035.
H51F gave an abundance fitness of -0.052 ± 0.044.
H51K showed an abundance fitness of -0.012 ± 0.031.
H51E gave an abundance fitness of 0.005 ± 0.038.
H51G showed an abundance fitness of -0.023 ± 0.02.
Work on H51V yielded an abundance fitness of -0.034 ± 0.022.
Y35G showed an abundance fitness of -0.635 ± 0.023.
Y35C showed an abundance fitness of -0.099 ± 0.034.
In the case of Y35W, the abundance fitness is reported as 0.001 ± 0.024.
Y35D showed an abundance fitness of -0.698 ± 0.088.
Y35V showed an abundance fitness of -0.118 ± 0.024.
In the case of A52I, the abundance fitness is reported as -0.062 ± 0.052.
For A52K, the abundance fitness was -0.023 ± 0.038.
With A52C the abundance fitness was -0.015 ± 0.038.
In the case of A52S, the abundance fitness is reported as -0.016 ± 0.027.
With A52F the abundance fitness was -0.049 ± 0.047.
In the case of A52T, the abundance fitness is reported as -0.037 ± 0.033.
In the case of A52Y, the abundance fitness is reported as -0.116 ± 0.043.
For E65K, the abundance fitness was 0.002 ± 0.048.
In the case of E65Q, the abundance fitness is reported as 0.113 ± 0.14.
In the case of Q48M, the abundance fitness is reported as -0.028 ± 0.034.
For Q48C, the abundance fitness was -0.064 ± 0.03.
In the case of Q48K, the abundance fitness is reported as -0.015 ± 0.036.
In the case of L43Y, the abundance fitness is reported as -0.526 ± 0.056.
Variant L43N has an abundance fitness of -0.447 ± 0.057.
In the case of L43D, the abundance fitness is reported as -0.503 ± 0.042.
Work on L43M yielded an abundance fitness of -0.105 ± 0.045.
For K44H, the abundance fitness was -0.075 ± 0.046.
With K44N the abundance fitness was -0.021 ± 0.045.
Variant K44S has an abundance fitness of -0.015 ± 0.022.
Variant K44Q has an abundance fitness of -0.014 ± 0.033.
S7F gave an abundance fitness of -0.082 ± 0.042.
For S7I, the abundance fitness was -0.234 ± 0.064.
S7C gave an abundance fitness of -0.026 ± 0.047.
S7Q showed an abundance fitness of -0.067 ± 0.031.
Variant S7L has an abundance fitness of -0.137 ± 0.027.
In the case of V6T, the abundance fitness is reported as 0.016 ± 0.035.
Variant V6P has an abundance fitness of -0.077 ± 0.026.
Work on V6E yielded an abundance fitness of -0.067 ± 0.045.
Work on V6C yielded an abundance fitness of -0.111 ± 0.035.
For V6D, the abundance fitness was -0.013 ± 0.035.
In the case of V6M, the abundance fitness is reported as -0.017 ± 0.027.
Work on V6L yielded an abundance fitness of -0.007 ± 0.029.
For V6G, the abundance fitness was -0.032 ± 0.024.
V6Y gave an abundance fitness of -0.11 ± 0.036.
Work on D2H yielded an abundance fitness of -0.17 ± 0.062.
For D2A, the abundance fitness was -0.147 ± 0.025.
D2P gave an abundance fitness of -0.132 ± 0.033.
D2C showed an abundance fitness of -0.19 ± 0.042.
Work on Q24C yielded an abundance fitness of -0.048 ± 0.032.
Work on Q24W yielded an abundance fitness of -0.138 ± 0.023.
For Q24N, the abundance fitness was -0.089 ± 0.083.
Work on Q24E yielded an abundance fitness of -0.039 ± 0.035.
With Q24H the abundance fitness was -0.015 ± 0.041.
Variant Q24D has an abundance fitness of -0.152 ± 0.036.
Variant Q24F has an abundance fitness of -0.12 ± 0.044.
Variant K55C has an abundance fitness of -0.041 ± 0.035.
